# Laboratory results as given in paper PMC7069958, “Multi-level and lineage-specific interactomes of the Hox transcription factor Ubx contribute to its functional specificity”.
# T1: V5-Tin (UniProt P22711)
# T1 sequence: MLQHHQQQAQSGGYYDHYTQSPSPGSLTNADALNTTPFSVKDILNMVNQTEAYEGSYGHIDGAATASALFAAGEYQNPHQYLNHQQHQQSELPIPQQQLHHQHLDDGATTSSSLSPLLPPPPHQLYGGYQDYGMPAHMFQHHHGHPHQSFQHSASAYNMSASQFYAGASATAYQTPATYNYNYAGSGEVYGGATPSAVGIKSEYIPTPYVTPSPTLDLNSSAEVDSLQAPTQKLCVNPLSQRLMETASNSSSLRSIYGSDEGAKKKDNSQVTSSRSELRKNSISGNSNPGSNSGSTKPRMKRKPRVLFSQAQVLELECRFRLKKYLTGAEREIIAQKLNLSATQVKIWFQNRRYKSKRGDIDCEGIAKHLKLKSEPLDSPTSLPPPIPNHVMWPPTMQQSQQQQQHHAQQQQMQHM
# B1: V5-Tin, His-purified (natural protein)
# chain: T1 sequence
# How the values were obtained:
# V5-Tin = target: T1, V5-Tin; experiment: EMSA; settings: 20 mM HEPES pH 7.9, 1.4 mM MgCl2, 1 mM ZnSO4, 40 mM KCl, 0.1 mM EDTA, 5% glycerol, 0.2 ug poly(dI-dC), 0.1 ug BSA, 10 mM DTT, 0.1% NP40, 30 ul, 20 min; gel 6% …
# [1] = target: GST-Ubx^FL (full length) (Drosophila) (UniProt P83949); experiment: pull-down; GST or GST-Ubx fusion proteins in equal amounts with His-purified proteins; affinity buffer (20 mM HEPES, 10 uM ZnCl2, 0.1% Triton, 2 mM EDTA) with NaCl, 1 mM DTT, 0.1 mM PMSF; 2 h at 4 °C; western blot
# GST-Ubx^FL (full length) (Drosophila), sequence (P83949 whole entry, the tested form may be a part): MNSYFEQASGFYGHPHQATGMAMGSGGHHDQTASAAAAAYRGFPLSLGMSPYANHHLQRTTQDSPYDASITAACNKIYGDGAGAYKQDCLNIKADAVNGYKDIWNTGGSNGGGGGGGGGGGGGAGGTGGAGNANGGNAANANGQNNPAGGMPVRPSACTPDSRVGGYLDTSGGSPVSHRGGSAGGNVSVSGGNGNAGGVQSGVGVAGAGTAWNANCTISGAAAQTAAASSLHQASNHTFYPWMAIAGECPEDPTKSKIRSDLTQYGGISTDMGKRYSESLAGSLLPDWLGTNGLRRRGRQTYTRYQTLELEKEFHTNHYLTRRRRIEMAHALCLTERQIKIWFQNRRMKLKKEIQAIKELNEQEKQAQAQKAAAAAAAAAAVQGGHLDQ
Molecule,binding (V5-Tin),fold stronger than the Ubx-Exd interaction (signal in pull-down compared with input) [1]
CAATCGCTGTAAATAAATAGGAGCCGCAGATCAAAGGCCTATCAATTAGCACCCATTTCGATTATGCTGCATGCTGCATATGCAGCACTTGCACTGCCTGCAATTCACACCCAATTAGTAATAAATTTGAATGCGCGCTGCAATTTGCCG (double strand) [dpp674 enhancer fragment F3 (150 bp)],binds,–
B1,–,> 10 fold
